According to the nanobody polyreactivity screen of Harvey et al. (2022):

Assay: yeast display, Sf9 membrane polyspecificity reagent, FACS + sequencing; frameworks hold sequencing errors
Summary of the method: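 Polyreactivity labels are assigned by the sorting gate from which each nanobody was recovered. The gates were low and high (top ~1%), set on anti-HA fluorescence for expression and streptavidin fluorescence for reagent binding. Before sorting, galactose-induced (36–48 hours) yeast display cells were stained for 1 hour at 4 °C with 10% biotinylated, detergent-solubilized Sf9 membrane reagent.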

Sequence	polyreactivity (PSR sort gate)
QVHLVESGGGLVQAGGSLRLSCAASGRTFFQYAMGWYTQAPGKERELVAAIRWSDSTYYADSVKGRFTISRDNAKNTVYLQMNSLKPEDTAVYYCAKTYRYYRTMDYWGQGTQVTVSS	low polyreactivity
QVQLVESGGGLVQAGGSLRLSCAASGRIISSYAMGWYRQAPGKERELVAAITSSGGSTYYADSVKGRFTISRDNAKNTVYLQMNSLKPEDTAVYYCAARVFARYYTAYGVETRREEDYWGQGTQVTVSS	low polyreactivity
QVQLVESGGGLVQAGGSLRLSCAASGRIFDFNAMGWYRQAPGKEREFVAAIRTSGGDSTYYADSVKGRFTISRDNAKNTVYLQMNSLKPEDTAVYYCAKTVWWYYRYPFDYWGQGTQVTVSS	low polyreactivity
QDQLVESGGGLVQAGGIHRLICDSSGFIFWDNAMGCSRQAPGKEREFVAAISQRCTRTYYADSVKGRFTISRDNAKKTVFFPLNSLKPEDTGVYYCNRGGWRQFDSWGQGTQVTVSS	high polyreactivity
QVQLVESGGGLVQAGGSLRLSCAASGSTFSRYAMGWYRQAPGKERELVAAISSRGGSTYYADSVKGRFTISRDNAKNTVYLQMNSLKPEDTAVYYCNALSSYQNHVYPYDYWGQGTQVTVSS	high polyreactivity
QVQLGESGGGLVQAGGSLRLSCAASGSIFQKYTMGWYRQAPGKERELVAAITRSGGSTYYADSVKGRFTISRDNAKNTVDFQMNSLKPEDTAVYYCAAPAAGDEYDYWGQVTQVTVSS	high polyreactivity
QVQLVESGGGLVQAGGSLRLSCAASGSIYIYYAMGWYRQAPVKERELVADITFSAGSNTYYADSVKGRFTISRDNAKNTVYLQMNSLKPEDTAVYYCNADRGFFGSITEYDYWGQGTQVTVSS	low polyreactivity
QVQLVESRGGLVQAGGSLRLSCAASGRILHFNAMGWYRQAPGKEREFVASISWSGGFTYYADSVKGRFTISRDNAKNTVYLQMNSLTPEDTAVYYCARGYGYGDHAMGYWGQGTQVTVSS	high polyreactivity
QVQLQDSGGVQAGGSLRLSCAASGYISRSDVMGWYRQAPGKERELVATIINGTITYYADSVKGRFPISRDNAKNTVYLQMNSLNPEDTAVQYCAVVQSDTDSLYYWGQGTQVTVSS	low polyreactivity
QVQLVESGGGLVQAGGSLRLSCAASGRTSRVNAMGWYRQAPGKERELVATITKSGGSTFYADSVKGRFTISRDNPKNTVYLQMNILKPEDTAVYYCNAGGVRATKGYDYWGQGTQVTVSS	low polyreactivity
QVQLVESGGGLVQAGGSLRLSCDASGRTFPDYAIGWYIQAPGKESELVAAISGSGGSTYYADSVKGRFTISRDNAKNTVYLQMNSLKPEDTAVYYCAAEAETLLWYWFPSAVDYWGQGTQVTVSS	high polyreactivity
QVQLVESGGGLVQAGGSLRLICAAYGSTFKQYAMGWYRPAPGKERELVAAITRGGRTYYADSVKGRFTISRDNAKNTVYLQMNSLKPEDTAVYYCNAQSWRRYGHFYYWGQGTQVTVSS	high polyreactivity
QVQLVESGGGLVQAGGSLRLSCAASGSTFYSNAMGWYRQAPGKERELVARISWIGTSTYYADSVKGRFTISRDNAKNTVYLQMNSLKPEDTAVYDCAAGTVGPRRRRYIWLDYWGQGTQVTVSS	high polyreactivity
QVQLVESGGGLVQAGGSRLSCAASGLIFIWYTMGWYRQAPGKERELVAAIDSSGGNTYYADSVKGRFTISRDNAKNPVYLQMNSLKPAETAVYYCATDVGHGAGNLMGYWGQGTQVTVSS	low polyreactivity
QVQLVESGGCLVQAGGSLRLSCAASGSIGTYVMGWYRQAPGKQRELVAAITSNGGRKYYADSVKGRFTISRDNAKNTVYLQMNSLKPEDTAVYYCATVNYSPRYTMYYWGQGTQVTVSS	high polyreactivity
QVQLVESGGGLVQAGGSLRLSCAASGFIFWSYAMGWYRQAPGKERELVAAINTSGDSTYYADSVKGRFTISRDNAKYTVYLQMNSLKPEDTAVYSCAAKSSTRGDYWGQGTQVTVSS	low polyreactivity
QVQRVETGGGLFQAGGSLRLSCAASGRTFGPYAMGWYIQAPGKERELVAAIRYIDDSTFYADSVKGRFTISRDNAKNTVYVQMNSLKPEDTAVYYCAAQRRVVGRHGLSLIRYDYWGQGTQVTVSS	low polyreactivity
QVQLVESGGALVQAGGSIRLSCAASGRIFLHYAMGWYRQAPGKERELVAAISSSGGSTYYADSVKGRFTISRDNAKNTVYLQMKSLKPEDTAVYYCAAAYPVKTTEGYYYWGQGTHVTVSS	high polyreactivity
QVHLVESGGGLVQAGGSLRLSCAASGRTIHSYAMGWYRQAPGKERELVAAINNGGGTYYADSVKGRFTISRDNAKNTVYLQMNSRKPEDTAVYYCAAATRKRIGSYYYWGQGTQVTVSS	high polyreactivity
QVQLVESGGGLVQAGGSLRLSCAASGRIFRYNAMGLYRQAPGKERELVAAISRGGSSTYYADSVKGRFTISRDNAKNTVYLQMNSLKPEDTAVYYCNARSVVREFNYWGQGTQVTVSS	high polyreactivity
QVQLVESGGGLVQAGGSLRLSCAASGSTFARNAMGRNRQAPGKERELVARITWSGSGTFYADPVKGRFTISRDNAKNTVYLQMYCLKPQDTAVYYCASEGPSAGFDYWGQGTQVTVSS	high polyreactivity
QVQLVESGGGLVQAGGSLRLSRAASGFTLAYYAMGWYRQAPGKERELVAAITADTGTTYYADSVKGRFTISRDNAKNTVYLQMNSLKPEDTAVYYCATRDVFYDDDYWGQGTQVTVSS	high polyreactivity

Sequence	polyreactivity (PSR sort gate)
QVQLVESGGGLVQAGGSLRLSCAASGSIFGAYAMGWYRQAPGKERELVAAISSSVDRTYYADSVKGRFTISRDNAKNTVYLQMNSLKPEDTAVYYCAARWGTRDRTKYYYWGQGTQVTVSS	high polyreactivity
QVQLVESGGGLVQAGGSLRLSCAASGFTFYRYAMGWYRQAPGKERELVAAITNGGGTYYADSVKGRFTISRDNAKNTVYLQMNSLKPEDTAVYYCAAKSRLPTQGLGIYYWGQGTQVSVSS	high polyreactivity
QVQLVESGGCLVQAGGSLRLSCAASGGTFRGYAMGWYRQAPGKETELVAASSTSGSRTSYADSVKGRFTISRDNAKNTVYLQMNSLKPEDNAVYYCNADPIHGVYSRFRLGGYWGQGTQVTVSS	high polyreactivity
QVQLVESGGALVQAGGSLRLSCAASGLTFIAYALGWYRQAPGKERELVASIDSGGGTNYADSVKGRFTISRDNAKNTVYLQMNSLKREDTAVYYCAAESPLYWVDDFESGWRYYYWGQGTHVTVSS	low polyreactivity
QVQLVESGGGLVQAGGSLRLSCAASGRTFYLYAMGWYRPAPGKERELVAAITSGGSTNYADSVKGRFTISRDNAKNTVYLQMNSLKPEDTAVYYCNAYKRGYLYRYNYWGQGTQVTVSS	high polyreactivity
QVQLVESGGGLVQAGGSLRLSCAASGRIFPVYAMGWYRQAPGNERELVAAITSGVGSTYYADSVKGRFTISRDNAKNTVYLQMNSLKPEDTAVYYCAADSSYLTYWEYDYWGQGTQVTVSS	low polyreactivity
QVQLVESGGGLVQAGGSLRLSCAASGYTFTSNAMGWYRQAPGKERELVAAISRSGVSTSYADSVKGRFTISRDNAKNTVYLQMNSLKPEDSAVYYCNRYYWDPTHPRYDSWGQGTQVTVSS	high polyreactivity
QVQLVESGGGLVQAGGSLRLSCAASGFTFPYYAMGWYRQAPGKERELVAAISTRGGSTYYADSVKGRFTISRDNAKNTVYLQMKSLKPEDTAVYYCAADPGRVTRVGVRYYYWGQGTQVTVSS	high polyreactivity
QVQLVESVGGLVQAGGSLRLSCAASGSIFYWSAMGWYRQAPGKERELVAAISSGGSTNYADSVKGRFTISRDNAKNTVYLQMNSLKPEDTAVYYCAAGWDASYGYDYWGQGTQVTVSS	low polyreactivity
QVQLVESGGGLVQAGGSLRLSRAASGRSYVYAMGWYRQAPGTETEVVAAISTISSSTYYADSVKGRFTISRDNAKNTVYLQMNSLKPEDTAVYYCAADYSQYYYYGWIDSDYWGQGTQVTVSS	high polyreactivity
QVQLVESGGGLVQAGGSLRLSCAASGSILVNMGWYRQPPGKERELVAAIRYGGGRTYYADSVKGRFTISRDNAKNTVYLQMNSLKPEDTAVYYCAASQGRSYYYWGQGTQVTVSS	low polyreactivity
QVQLVESGGGLVQAGGSLRLSCAASGRTFGYNTMGWYRQAPGKEREFVATIRTNGVSTYYADSVKGRFTISRDNAKNTVYLQMNSLKPEDTAVYYCNAPRTRKQKTIYVNAPGNYWGQGTQVTVSS	low polyreactivity
QVQLVESGGGLVQAGGSLRLSCAASGSIFAKYAMGWYRQAPGKERELVAAISSGGSTYYADSVKGRFTISRDNAKNTVYIQMNSLKPEDTAVYYCAADYGSDYTKGDYWGQGTQVTVSS	low polyreactivity
QVQLVESGGGLVQAGGSLRLSCASSGSIFRRNVMGWYRQAPGKERELVASITGRGGSTYYADSVKGRFTISRDNAKNTVYLQMNSLKPEDTAVYYSNADSLRTYDWYTRTVGYGYWVQGTQVTVSS	high polyreactivity
QVQLVESGGGLVQAGGSLRLSCAASGSIFDVYTMGWYRQAPGKDRELVAAINTGGGSTYYADSVKGRFTISRDNAKNTVYLQMNSLKPEDTAVYYCARSRYREWGQGTQVTVSS	low polyreactivity
QVQLVESAGGLVQEGGSLRISCAASGRIFFYYSMGWYRQAPGKERELVAAISQSGGSTYYADSVKGRFTISRDNAKNTVYLQMNSLKPEDTAVYYCNAADPYYDTSAVAGDYWGHGTQVTVSS	low polyreactivity
QVQLVESGGGLVQAGGSRRLSCAASGRTLGHNAMGWYRQAPGKERELVAAITSRGGTTYADSVKGRFTISRDNAKNTVYLQMNSLTPEDTAVYYCAARGYAYSRYYFWGQGTQVTVSS	high polyreactivity
QDQLVESGGGLVQAGGSLRLSCAASGSIIDYYDMGWYRQAPGKEREFVAAINWSGGNTHYADSVKGRFTISRDNAKNTVYLQMNSLKPEDTAVYYCAVDVKIGTDFIGVVIPGDYWGQGTQVTVSS	low polyreactivity
QVQLVESGGGLVQAGGSLRLSCAASGNIFPAYAMGWYRPAPGKERELVATISRRGGGTYYADSVKGRFTISRDNAKNTVYLQMNSLKPEDTAVYYCNGAGWTSAYDYWGQGTQVTVSS	low polyreactivity
QVQLVESGGGLVQAGGSLRLSCAASGRTFSKYAMGWYRQAPGKERELVASITRSGGSTNYADSVKGRFTISRDNAKNTVYLQINSLKPEDTAVYYCRRKLGRTHASGFDYWGQGTQVTVSS	low polyreactivity
QVQLVESGGGLVQAGGSLRLSCAASGFIFAWYAMGWYRQAPGKERELVADITSGGDTSYADSVKGRFTISRDNAKNTVYLQMNSLKPEDTAVYYCARDVYIWYGYGYFPEYEYWGQGTQVTVSS	low polyreactivity
